Molecular target: BamD_(R49C) (E. coli) (UniProt P0AC02)
Test: cross-linking

## ^MBP−76EspP_(D1218C)
  percent crosslinked (plateau after oxidation with 4-DPS): 40%
  percent crosslinked spontaneously (Ox-, no oxidant): 10%

Source: publication PMC8985213
